Data taken from PMC2860068 (DNA repair, 2010).

B1: GST-hRad9 (natural protein, human, UniProt Q99638 1-391, looked up)
chain: MKCLVTGGNVKVLGKAVHSLSRIGDELYLEPLEDGLSLRTVNSSRSAYACFLFAPLFFQQYQAATPGQDLLRCKILMKSFLSVFRSLAMLEKTVEKCCISLNGRSSRLVVQLHCKFGVRKTHNLSFQDCESLQAVFDPASCPHMLRAPARVLGEAVLPFSPALAEVTLGIGRGRRVILRSYHEEEADSTAKAMVTEMCLGEEDFQQLQAQEGVAITFCLKEFRGLLSFAESANLNLSIHFDAPGRPAIFTIKDSLLDGHFVLATLSDTDSHSQDLGSPERHQPVPQLQAHSTPHPDDFANDDIDSYMIAMETTIGNEGSRVLPSISLSPGPQPPKSPGPHSEEEDEAEPSTVPGTPPPKKFRSLFFGSILAPVRSPQGPSPVLAEDSEGEG
B2: GST-hRad1 (natural protein, human, UniProt O60671 1-282, looked up)
chain: MPLLTQQIQDEDDQYSLVASLDNVRNLSTILKAIHFREHATCFATKNGIKVTVENAKCVQANAFIQAGIFQEFKVQEESVTFRINLTVLLDCLSIFGSSPMPGTLTALRMCYQGYGYPLMLFLEEGGVVTVCKINTQEPEETLDFDFCSTNVINKIILQSEGLREAFSELDMTSEVLQITMSPDKPYFRLSTFGNAGSSHLDYPKDSDLMEAFHCNQTQVNRYKISLLKPSTKALVLSCKVSIRTDNRGFLSLQYMIRNEDGQICFVEYYCCPDEEVPESES
B3: GST-hHus1 (natural protein, human, UniProt O60921 1-280, looked up)
chain: MKFRAKIVDGACLNHFTRISNMIAKLAKTCTLRISPDKLNFILCDKLANGGVSMWCELEQENFFNEFQMEGVSAENNEIYLELTSENLSRALKTAQNARALKIKLTNKHFPCLTVSVELLSMSSSSRIVTHDIPIKVIPRKLWKDLQEPVVPDPDVSIYLPVLKTMKSVVEKMKNISNHLVIEANLDGELNLKIETELVCVTTHFKDLGNPPLASESTHEDRNVEHMAEVHIDIRKLLQFLAGQQVNPTKALCNIVNNKMVHFDLLHEDVSLQYFIPALS

How the values were obtained:
[1] = molecular target: T1, hMSH6 (recombinant, subunit of purified hMutSα) (human, UniProt P52701 1-1360); assay: far-Western
T1 sequence (P52701 whole entry): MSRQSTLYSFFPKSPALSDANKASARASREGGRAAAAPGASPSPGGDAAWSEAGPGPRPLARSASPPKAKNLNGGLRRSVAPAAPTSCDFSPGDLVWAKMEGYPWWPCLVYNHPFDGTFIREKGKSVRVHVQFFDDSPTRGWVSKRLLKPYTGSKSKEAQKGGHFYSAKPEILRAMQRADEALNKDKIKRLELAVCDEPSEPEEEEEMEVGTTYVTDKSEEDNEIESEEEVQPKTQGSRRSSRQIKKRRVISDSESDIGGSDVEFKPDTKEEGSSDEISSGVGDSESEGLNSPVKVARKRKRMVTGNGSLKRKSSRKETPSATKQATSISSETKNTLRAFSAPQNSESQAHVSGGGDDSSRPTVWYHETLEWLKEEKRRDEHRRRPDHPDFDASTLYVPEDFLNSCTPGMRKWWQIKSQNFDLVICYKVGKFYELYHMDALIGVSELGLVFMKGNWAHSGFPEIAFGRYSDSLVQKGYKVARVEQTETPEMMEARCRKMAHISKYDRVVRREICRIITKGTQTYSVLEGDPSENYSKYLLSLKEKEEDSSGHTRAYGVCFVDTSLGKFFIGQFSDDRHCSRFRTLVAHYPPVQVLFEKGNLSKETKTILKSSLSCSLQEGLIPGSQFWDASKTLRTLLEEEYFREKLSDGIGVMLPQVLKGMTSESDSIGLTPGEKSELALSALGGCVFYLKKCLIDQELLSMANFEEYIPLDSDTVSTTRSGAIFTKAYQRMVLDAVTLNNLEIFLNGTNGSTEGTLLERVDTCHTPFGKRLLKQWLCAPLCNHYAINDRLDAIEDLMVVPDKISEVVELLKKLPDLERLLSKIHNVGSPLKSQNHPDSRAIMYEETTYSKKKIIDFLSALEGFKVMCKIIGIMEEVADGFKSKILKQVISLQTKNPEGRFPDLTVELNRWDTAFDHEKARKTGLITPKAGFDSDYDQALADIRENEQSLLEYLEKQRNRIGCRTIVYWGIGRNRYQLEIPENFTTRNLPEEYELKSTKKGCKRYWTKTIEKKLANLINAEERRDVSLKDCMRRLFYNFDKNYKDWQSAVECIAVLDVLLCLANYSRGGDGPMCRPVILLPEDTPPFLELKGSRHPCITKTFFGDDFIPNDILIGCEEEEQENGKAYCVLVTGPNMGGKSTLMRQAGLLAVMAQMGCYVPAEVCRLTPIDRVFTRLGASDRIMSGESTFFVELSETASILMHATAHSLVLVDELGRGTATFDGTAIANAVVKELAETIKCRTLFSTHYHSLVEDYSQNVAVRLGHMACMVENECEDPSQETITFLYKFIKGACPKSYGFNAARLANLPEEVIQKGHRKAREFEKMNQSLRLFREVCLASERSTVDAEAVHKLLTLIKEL

[2] = molecular target: hMSH3 (recombinant, subunit of purified hMutSβ) (human, UniProt P20585 1-1137); assay: far-Western
Chain of hMSH3 (recombinant, subunit of purified hMutSβ) (P20585 whole entry): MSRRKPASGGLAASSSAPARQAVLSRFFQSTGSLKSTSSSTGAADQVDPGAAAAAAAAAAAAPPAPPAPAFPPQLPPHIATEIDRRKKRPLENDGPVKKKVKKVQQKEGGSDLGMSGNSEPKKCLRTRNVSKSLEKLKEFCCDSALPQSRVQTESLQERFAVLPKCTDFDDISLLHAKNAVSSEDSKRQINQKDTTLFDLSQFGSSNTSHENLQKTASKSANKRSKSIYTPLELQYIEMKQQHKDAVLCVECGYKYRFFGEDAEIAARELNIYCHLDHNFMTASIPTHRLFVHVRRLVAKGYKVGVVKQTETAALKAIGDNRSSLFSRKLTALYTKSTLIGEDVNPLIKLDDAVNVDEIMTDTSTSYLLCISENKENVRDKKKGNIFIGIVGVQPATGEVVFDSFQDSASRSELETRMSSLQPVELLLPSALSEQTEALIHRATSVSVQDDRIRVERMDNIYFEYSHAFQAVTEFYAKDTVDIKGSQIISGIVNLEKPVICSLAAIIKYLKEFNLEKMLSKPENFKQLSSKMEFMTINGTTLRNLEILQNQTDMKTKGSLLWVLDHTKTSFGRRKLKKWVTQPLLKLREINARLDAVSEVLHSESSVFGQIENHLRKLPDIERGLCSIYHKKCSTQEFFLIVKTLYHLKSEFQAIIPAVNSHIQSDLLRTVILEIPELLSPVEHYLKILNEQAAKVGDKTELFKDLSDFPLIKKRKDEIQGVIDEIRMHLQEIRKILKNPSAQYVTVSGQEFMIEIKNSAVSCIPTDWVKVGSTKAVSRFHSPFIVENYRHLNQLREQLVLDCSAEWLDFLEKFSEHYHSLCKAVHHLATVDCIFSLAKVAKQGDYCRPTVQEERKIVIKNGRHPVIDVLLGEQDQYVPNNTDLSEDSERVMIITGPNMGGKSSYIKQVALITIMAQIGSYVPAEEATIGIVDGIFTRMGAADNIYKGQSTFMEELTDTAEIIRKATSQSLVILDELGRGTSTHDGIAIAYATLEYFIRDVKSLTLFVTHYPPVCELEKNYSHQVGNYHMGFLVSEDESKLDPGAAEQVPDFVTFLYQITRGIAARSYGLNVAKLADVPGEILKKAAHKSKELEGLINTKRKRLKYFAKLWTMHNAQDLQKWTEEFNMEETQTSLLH

[3] = molecular target: T1, hMSH6 (recombinant, subunit of purified …); assay: pull-down

binding result [1] | binding result [2] | binding result [3] | Binder
binds | – | – | B1
binds | – | – | B2
– | binds | binds | B3
